Test [1] concerns the target T1, CD96 epitope peptide #19 (280-299) (human).
T1 peptide: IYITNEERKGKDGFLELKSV
Kind of test: peptide ELISA, peptide coated. The procedure:
(§1) The epitopes recognized by anti-CD96 antibody were detected by the assay of binding the antibody to different polypeptide fragments of CD96 protein. The fragments of different polypeptides of the CD96 antigen were coated on the microtiter plate. The signal density after the antibody was added was used to judge the binding activity of the antibody and the polypeptide. The specific experimental method is as follows:
(§2) The polypeptides were diluted to a concentration of 20 μg/ml with PBS buffer (Shanghai Yuanpei Biotechnology Co., Ltd. Cat No. B320), pH 7.4, added to a 96-well microtiter plate (Corning, Cat No. CLS3590-100EA) at a volume of 50 μl/well, and coated at 4° C. overnight. After discarding the liquid, 250 μl/well of 5% skim milk (BD skim milk, Cat No. 232100) blocking solution diluted with PBS was added, and the plate was incubated in an incubator at 37° C. for 3 hours. After blocking, the blocking solution was discarded, and the plate was washed 5 times with PBST buffer (pH 7.4 PBS containing 0.05% tween-20). 50 μl/well of different concentrations of the antibodies to be tested (hybridoma purification antibody or humanized antibody) diluted with sample dilution was added, and the plate was incubated in an incubator at 37° C. for 2 hours. […] After washing the plate 5 times with PBST, 50 μl/well of TMB chromogenic substrate (KPL, Cat No. 52-00-03) was added, the plate was incubated at room temperature for 5-15 min, followed by adding 50 μl/well of 1M H₂SO₄ to stop the reaction. The absorption value was read at 450 nm with a microplate reader (Thermo Scientific MuLtiskan MK3), and the epitopes that CD96 antibody can recognize were analyzed.
For orientation: In an ELISA, binding on a coated surface is turned into a signal by an enzyme label.

Test [2] addresses T2, CD96 epitope peptide #12 (181-200) (human).
T2 peptide: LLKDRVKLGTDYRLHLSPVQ
The test can be described thus: peptide ELISA, peptide coated. The procedure: as §1, §2

Test [3] deals with T3, CD96 epitope peptide #10 (149-170) (human).
T3 peptide: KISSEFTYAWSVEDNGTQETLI
The test can be described thus: peptide ELISA, peptide coated. On the procedure: as §1, §2

Test [4] addresses T4, CD96 epitope peptide #16 (235-254) (human).
T4 peptide: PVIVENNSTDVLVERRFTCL
Kind of test: peptide ELISA, peptide coated. On the procedure: as §1, §2

The target in test [5] is T5, CD96 epitope peptide #2 (32-51) (human).
T5 peptide: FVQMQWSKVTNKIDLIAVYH
Kind of test: peptide ELISA, peptide coated. The procedure: as §1, §2

Test [6] deals with T6, CD96 epitope peptide #6 (92-111) (human).
T6 peptide: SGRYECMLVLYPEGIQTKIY
The test can be described thus: peptide ELISA, peptide coated. On the procedure:
as §1, §2

In test [7] the target is T7, CD96 epitope peptide #22 (325-344) (human).
T7 peptide: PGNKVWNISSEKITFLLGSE
The test can be described thus: peptide ELISA, peptide coated. The procedure:
as §1, §2

Test [8] addresses T8, CD96 extracellular region with His tag (CD96-His) (human, UniProt P40200 22-519).
T8 construct: also called CD96-ECD-His; Bio-CD96-His (biotin-labelled form)
T8 sequence: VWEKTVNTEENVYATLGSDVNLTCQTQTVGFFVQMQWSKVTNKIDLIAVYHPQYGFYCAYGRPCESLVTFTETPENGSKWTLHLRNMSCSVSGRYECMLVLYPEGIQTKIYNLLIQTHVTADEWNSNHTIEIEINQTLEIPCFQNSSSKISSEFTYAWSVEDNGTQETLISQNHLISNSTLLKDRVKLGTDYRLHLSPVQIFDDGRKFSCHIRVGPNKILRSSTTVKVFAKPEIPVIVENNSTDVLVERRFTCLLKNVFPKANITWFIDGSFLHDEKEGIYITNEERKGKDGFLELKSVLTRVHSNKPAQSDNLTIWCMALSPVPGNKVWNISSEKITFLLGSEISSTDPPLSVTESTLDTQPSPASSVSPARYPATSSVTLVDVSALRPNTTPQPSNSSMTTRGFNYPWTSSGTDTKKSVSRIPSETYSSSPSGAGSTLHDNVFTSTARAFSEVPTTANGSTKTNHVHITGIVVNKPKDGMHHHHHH
Kind of test: blocking cell ELISA: antibody pre-mixed with Bio-CD96-His, added to fixed CD155-CHO cells, HRP-streptavidin, OD450; blocked ligand: human CD155 on CHO cells. The procedure:
CD155-CHO cells (constructed by Shanghai Hengrui) were seeded in 96-well culture plates at a density of 9×10⁴/100 μL/well and cultured overnight. After aspirating the supernatant, the plate was washed once with PBS, 100 μl/well of immunostaining fixation solution (Biyuntian, Cat No. P0098) was added and fixed for one hour at room temperature, and the plate was washed three times with PBS. After discarding the liquid, 250 μl/well of 5% skim milk (BD, Cat No. 232100) blocking solution diluted with PBS was added, and the plate was blocked in an incubator at 37° C. for 2.5 hours. After blocking, the blocking solution was discarded, subsequently, the plate was washed 4 times with PBST buffer (pH 7.4 PBS containing 0.05% tween-20). […] The absorption value was read at 450 nm with a NOVOStar microplate reader, and the EC50 value of the effect of CD96 antibody on blocking the binding between the antigens and CD155-CHO cells was calculated (see FIG. 2 and Table 16).

Results on two molecules are retold here after patent US20200347130A1 (JIANGSU HENGRUI MEDICINE, published 2020).

B1: ch1718 (antibody, human IgG4 S228P, kappa, V domains shown)
VH: EFQLQQSGPELVKPGASVKISCKASAYSITDYNMNWVKQSNGKSLEWIGVINPSYGITDYNQNFKDKATLTVDQSSSTAYMQLNSLTSEDSAVYYCAIQLRLPGYFDVWGTGTTVIVSS
VL: DIKMTQSPSSMYASLGERVTITCKASQDINNYLNWFQQKPGKSPKTLIYRANRLVDGVPSRFSGSGSGQDYSLTISSLEYEDMGIYYCLKYDEFPYTFGGGTKVEIKR
notes: also called chimeric antibody corresponding to m1718
Take B1: the binding result in test [1], in test [2], in test [3], in test [4], in test [5] and in test [6] was “binds” throughout. The binding result in test [7] is on record as “binds”.

B2: h1719-010 (antibody, V domains shown)
VH: EVTLKESGPVLVKPTETLTLTCTVSGFSLSSYGVSWVRQPPGKGLEWLGVIWGDGNTNYHSVLISRLTISKDTSKSQVVLTLTNMDPVDTATYYCAKQNYYGSRYGYPIDYWGQGTTVTVSS
VL: DIQMTQSPSSVSASVGDRVTITCKATQDVGTAVAWYQQKPGKAPKLLIYWASTRHTGVPSRFSGSGSGTDFTLTISSLQPEDFATYYCQQYGSSVLTFGGGTKVEIK
notes: Only variable regions are tied to this name
For the molecule B2, the “IC50 (read off the curve)” value in test [8] was around 0.6 nM.
